Laboratory results: article PMC6957483, “Anosmin-1 activates vascular endothelial growth factor receptor and its related signaling pathway for olfactory bulb angiogenesis” (Scientific Reports, 2020)
Blank lines part the entries; values can stand above or below the binder they belong to.

Target: T1, Recombinant human VEGFR2-Fc (human, UniProt P35968 20-764)
T1 construct: VEGF receptor-2 (VEGFR2, KDR), human; Probably the extracellular domain fused to an IgG Fc; In the functional rows this id stands for the whole VEGFR2 on HUVECs or PAE/KDR cells; also called VEGF receptor-2; KDR; source: bought: BioLegend
T1 sequence (P35968 20-764): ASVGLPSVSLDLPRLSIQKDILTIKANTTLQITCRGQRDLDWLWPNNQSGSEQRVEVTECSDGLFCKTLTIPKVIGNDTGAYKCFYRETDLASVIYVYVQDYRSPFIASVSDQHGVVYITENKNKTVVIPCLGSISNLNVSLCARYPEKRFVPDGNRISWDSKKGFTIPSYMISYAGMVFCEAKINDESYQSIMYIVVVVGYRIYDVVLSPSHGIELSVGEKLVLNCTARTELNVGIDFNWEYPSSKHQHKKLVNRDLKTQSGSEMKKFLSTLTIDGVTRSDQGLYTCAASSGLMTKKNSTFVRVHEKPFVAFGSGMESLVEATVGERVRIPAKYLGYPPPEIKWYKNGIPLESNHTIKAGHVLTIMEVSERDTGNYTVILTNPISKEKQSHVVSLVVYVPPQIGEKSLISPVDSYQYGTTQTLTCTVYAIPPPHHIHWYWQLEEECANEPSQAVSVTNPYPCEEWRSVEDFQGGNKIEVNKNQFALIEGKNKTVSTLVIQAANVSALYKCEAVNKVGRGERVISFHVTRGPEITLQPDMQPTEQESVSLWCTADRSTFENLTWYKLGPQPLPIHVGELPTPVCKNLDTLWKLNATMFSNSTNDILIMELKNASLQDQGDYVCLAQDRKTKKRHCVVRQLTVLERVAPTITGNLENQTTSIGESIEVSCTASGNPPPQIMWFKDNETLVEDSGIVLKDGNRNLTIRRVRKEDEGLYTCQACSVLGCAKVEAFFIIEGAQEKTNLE
Assay: SPR; BIAcore, 20 °C; VEGFR2-Fc (50 µg/mL in 10 mM sodium acetate, pH 4.5) coupled to an EDC/NHS-activated CM5 chip; anosmin-1, its mutant or VEGF-A injected in PBS with 0.35 M NaCl at 30 µL/min; affinity calculated from the on- and off-rates
Details: both partners purified

- Kd: 32 nM
- koff: 0.0011 s⁻¹
- kon: 35000 M⁻¹ s⁻¹
B1: Recombinant human anosmin-1 wild-type (natural protein, UniProt P23352 25-680, looked up)
chain: AGPGAAAARRLDESLSAGSVQRARCASRCLSLQITRISAFFQHFQNNGSLVWCQNHKQCSKCLEPCKESGDLRKHQCQSFCEPLFPKKSYECLTSCEFLKYILLVKQGDCPAPEKASGFAAACVESCEVDNECSGVKKCCSNGCGHTCQVPKTLYKGVPLKPRKELRFTELQSGQLEVKWSSKFNISIEPVIYVVQRRWNYGIHPSEDDATHWQTVAQTTDERVQLTDIRPSRWYQFRVAAVNVHGTRGFTAPSKHFRSSKDPSAPPAPANLRLANSTVNSDGSVTVTIVWDLPEEPDIPVHHYKVFWSWMVSSKSLVPTKKKRRKTTDGFQNSVILEKLQPDCDYVVELQAITYWGQTRLKSAKVSLHFTSTHATNNKEQLVKTRKGGIQTQLPFQRRRPTRPLEVGAPFYQDGQLQVKVYWKKTEDPTVNRYHVRWFPEACAHNRTTGSEASSGMTHENYIILQDLSFSCKYKVTVQPIRPKSHSKAEAVFFTTPPCSALKGKSHKPVGCLGEAGHVLSKVLAKPENLSASFIVQDVNITGHFSWKMAKANLYQPMTGFQVTWAEVTTESRQNSLPNSIISQSQILPSDHYVLTVPNLRPSTLYRLEVQVLTPGGEGPATIKTFRTPELPPSSAHRSHLKHRHPHHYKPSPERY
notes: anosmin-1, human, product of the ANOS1 gene; also called anosmin-1 WT; WT; source: 293 T cells (pSecTag2 vector), conditioned media, purified (HisTrap HP column, PD-10 column)

- Kd: 1400 nM
- koff: 0.046 s⁻¹
- kon: 34000 M⁻¹ s⁻¹
B2: Recombinant human anosmin-1 Δ2–4 deletion mutant (domain or fragment)
chain: AGPGAAAARRLDESLSAGSVQRARCASRCLSLQITRISAFFQHFQNNGSLVWCQNHKQCSKCLEPCKESGDLRKHQCQSFCEPLFPKKSYECLTSCEFLKYILLVKQGDCPAPEKASGFAAACVESCEVDNECSGVKKCCSNGCGHTCQVPKTLYKGVPLKPRKELRFTELQSGQLEVKWSSKFNISIEPVIYVVQRRWNYGIHPSEDDATHWQTVAQTTDERVQLTDIRPSRWYQFRVAAVNVHGTRGFTAPSKHFRSSKDP
modifications: secreted from 293T cells (pSecTag2; vector signal and His tag left out), likely N-glycosylated; cysteine box + WAP + first FnIII kept, FnIII 2-4 and His-rich region deleted; C-terminal limit taken …
